In this experiment the target is recombinant Fcγ-receptor 3a protein, high affinity V158 allotype (UniProt P08637). As to the kind of experiment: surface plasmon resonance, KD from ka and kd.

pKd: −log10 of the molar value.

Sequence of recombinant Fcγ-receptor 3a protein, high affinity V158 allotype (P08637 17-208 F176V): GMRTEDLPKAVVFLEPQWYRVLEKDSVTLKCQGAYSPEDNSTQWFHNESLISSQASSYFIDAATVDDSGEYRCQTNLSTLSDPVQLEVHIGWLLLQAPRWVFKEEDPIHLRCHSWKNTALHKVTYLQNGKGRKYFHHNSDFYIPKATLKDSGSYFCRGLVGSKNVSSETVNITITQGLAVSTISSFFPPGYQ

With “non Fc-engineered IgG1 reference antibody”, the pKd is 6.42.
